In patent publication US20190033318A1 (UNIVERSITY OF SOUTHAMPTON, published 2019):

How the values were obtained:
[1] = target: T1, Trx-1α (thioredoxin-tagged HIF-1α 1-350, bHLH-PASA-PASB) (UniProt Q16665 1-350); experiment: thermal shift assay, 1 mM peptide
T1 construct: range 1-350; not shown: Thioredoxin-His6 tag of vector pET32
Experimental: (§1) Thermal denaturation of HIF proteins was performed in 20 μL reactions in triplicate using a Bio-Rad CFX Connect Real-Time System. Proteins were used at either 5 μM (Trx-1α, Trx-2α and GST-1β) or 15 μM (His-tagged PASB domains) in HIF assay buffer, with 10 mM DTT and SYPRO orange dye (Life Technologies) at a final concentration of 8×(relative to 5000×stock), and supplemented with either DMSO or compound dissolved in DMSO at the stated concentrations. The reaction plate was assembled on ice, then transferred to the pre-chilled thermal cycler, held at 10° C. for 5 min (heated lid, 105° C.), then the temperature ramped to 95° C. Fluorescence was recorded at 0.5° C. increments, holding for 5 sec at each temperature. Data were plotted using GraphPad Prism 6, and melting temperatures calculated using the first derivative method in which the peak (i.e. the steepest transition between data points) represents the point at which 50% of the protein sample is denatured. Errors are quoted as the inherent error associated with the first derivative of the data, i.e. ±0.25° C. for Tₘ values and ±0.5° C. for ΔTₘ values.

[2] = target: T2, Trx-2α (thioredoxin-tagged HIF-2α 1-360, bHLH-PASA-PASB) (UniProt Q99814 1-360); experiment: thermal shift assay, 1 mM peptide
T2 construct: range 1-360; not shown: Thioredoxin-His6 tag of vector pET32
T2 sequence (Q99814 1-360): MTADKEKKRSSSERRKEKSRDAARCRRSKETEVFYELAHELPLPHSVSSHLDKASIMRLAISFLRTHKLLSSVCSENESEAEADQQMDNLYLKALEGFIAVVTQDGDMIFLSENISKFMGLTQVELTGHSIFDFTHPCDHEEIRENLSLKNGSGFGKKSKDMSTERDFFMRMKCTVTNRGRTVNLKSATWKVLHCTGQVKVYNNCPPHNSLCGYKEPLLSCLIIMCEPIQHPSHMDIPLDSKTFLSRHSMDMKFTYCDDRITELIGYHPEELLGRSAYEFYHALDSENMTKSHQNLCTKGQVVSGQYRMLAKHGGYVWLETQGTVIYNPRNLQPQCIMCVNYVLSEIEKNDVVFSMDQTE
Experimental: as §1

[3] = target: T3, 1α PASB (HIF-1α PASB domain, 238-349) (UniProt Q16665 238-349, labelled with NT-647-NHS dye in MST); experiment: thermal shift assay, 1 mM peptide
T3 construct: range 238-349; not shown: His6 tag of vector pET28, then Met
Experimental: as §1

[4] = target: T4, 2α PASB (HIF-2α PASB domain, 240-350) (UniProt Q99814 240-350, labelled with NT-647-NHS dye in MST; 15N (and 13C 15N) labelled in NMR); experiment: thermal shift assay, 1 mM peptide
T4 construct: range 240-350; also called PAS B domain of HIF-2α; not shown: His6 tag of vector pET28, then Met
T4 sequence (Q99814 240-350): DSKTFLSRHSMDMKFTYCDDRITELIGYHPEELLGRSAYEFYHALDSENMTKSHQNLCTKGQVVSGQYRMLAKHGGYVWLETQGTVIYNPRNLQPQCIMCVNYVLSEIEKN
Experimental: as §1

[5] = target: T5, 1β PASB (HIF-1β PASB domain, 356-474) (UniProt P27540 356-474); experiment: thermal shift assay, 1 mM peptide
T5 construct: range 356-474; not shown: His6 tag of vector pET28
T5 sequence (P27540 356-474): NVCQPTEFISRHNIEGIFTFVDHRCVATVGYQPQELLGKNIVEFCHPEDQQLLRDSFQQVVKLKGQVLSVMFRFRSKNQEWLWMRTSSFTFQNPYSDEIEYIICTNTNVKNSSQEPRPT
Experimental: as §1

[6] = target: T3, 1α PASB (HIF-1α PASB domain, 238-349); experiment: ELISA, 1α PASB on Ni plate, inhibition of GST-1β binding
Experimental: (§2) ELISA assays were conducted using 1α/2α PASB domains.
(§3) 25 μL of His-tagged HIF-α protein (either Trx-1α, Trx-2α, 1α PASB, or 2α PASB) at 0.1 μM in HIF assay buffer were added to individual wells of a Pierce Ni²⁺-coated 96-well plate (Thermo) in triplicate. The plate was rocked gently at room temperature for 1 hr, before washing with 3×200 μL assay buffer (5 min incubation per wash). 25 μL of compounds and/or DMSO at the stated concentrations were added to the plate and allowed to equilibrate for 30 min prior to the addition of 25 μL of GST-1β at 0.2 μM in assay buffer for 1 hr. For conditions in which no compound or DMSO were used, GST-1β was added as a 0.1 μM solution. After incubation with GST-1β, the wells were washed with 3×200 μL assay buffer then 1×200 μL PBS. The wells were then incubated with 100 μL mouse α-GST antibody (Thermo, MS-707-P) at a 1/1000 dilution in PBS supplemented with 0.1% Tween-20 (PBST) and 2% non-fat powdered milk (Marvel) for 1 hr, followed by 3×200 μL washed with PBS. 100 μL of secondary HRP-conjugated α-mouse antibody (GE Healthcare) was added at a 1/6000 dilution in 2% milk/PBST for 1 hr, then washed with 3×200 μL PBS. […] Absorbance was read at 450 nm using a Tecan Infinite M200 Pro plate reader. Data were fitted and IC₅₀ values determined by non-linear regression using GraphPad Prism 6.

[7] = target: T4, 2α PASB (HIF-2α PASB domain, 240-350); experiment: ELISA, 2α PASB on Ni plate, inhibition of GST-1β binding
Experimental: as §2, §3

[8] = target: T3, 1α PASB (HIF-1α PASB domain, 238-349); experiment: MST, peptide titrated into fluorescently labelled 1α PASB
Experimental: (§4) Microscale thermophoresis (MST) was performed to determine Kd of peptide binding to fluorescently labelled HIF-1α/2α PASB domains.
(§5) 0.5 mL of 1α or 2α PASB protein stocks in HIF storage/assay buffer were dialysed against 1 L of MST labelling buffer (100 mM NaHCO₃ pH 8, 150 mM NaCl and 5% glycerol) for 1.5 hr at 4° C., then against 1 L of fresh labelling buffer at 4° C. overnight. 100 μL of each dialysed protein diluted to 10 μM were incubated with 100 μL of 30 μM NT-647-NHS dye (NanoTemper protein labelling kit) for 20 min in the dark, then exchanged into 650 μL HIF assay buffer supplemented with 0.05% Tween-20 using the supplied gravity flow purification columns. A dilution series of cyclo-CRVIIF (SEQ ID NO 4) or alanine scan analogues (in HIF assay buffer, 10% DMSO) was mixed with equal volumes of labelled 1α PASB or 2α PASB at 100 nM and allowed to equilibrate for 10 min. Samples were loaded into hydrophilic capillaries and, after optimising the power, MST was performed using a Monolith […] instrument (NanoTemper). Data were analysed using NT Analysis Software using the Temperature Jump analysis mode.

[9] = target: T4, 2α PASB (HIF-2α PASB domain, 240-350); experiment: MST, peptide titrated into fluorescently labelled 2α PASB
Experimental: as §4, §5

[10] = target: T1, Trx-1α (thioredoxin-tagged HIF-1α …); experiment: competition ELISA: His-tagged Trx-1α on Ni plate, peptide titrated, binding of GST-1β (blocked partner) detected with anti-GST, A450
Experimental: (§6) IC₅₀ values for the compound=3.7 μM/8.8 μM for 1α/2α.
as §3

[11] = target: T2, Trx-2α (thioredoxin-tagged HIF-2α …); experiment: competition ELISA: His-tagged Trx-2α on Ni plate, peptide titrated, binding of GST-1β (blocked partner) detected with anti-GST, A450
Experimental: as §6, §3

[12] = target: T3, 1α PASB (HIF-1α PASB domain, 238-349); experiment: competition ELISA: 1α PASB on Ni plate, peptide titrated, blocked partner GST-1β; the value stands in the panel without a name, the ELISA fits give IC50
Experimental: as §3

[13] = target: T4, 2α PASB (HIF-2α PASB domain, 240-350); experiment: competition ELISA: 2α PASB on Ni plate, peptide titrated, blocked partner GST-1β; the value stands in the panel without a name, the ELISA fits give IC50
Experimental: as §3

[14] = target: T3, 1α PASB (HIF-1α PASB domain, 238-349); experiment: competition ELISA: 1α PASB on Ni plate, peptide titrated, blocked partner GST-1β; the value stands in the panel without a name, the ELISA fits give IC50; the fall is only partial
Experimental: as §3

[15] = target: T4, 2α PASB (HIF-2α PASB domain, 240-350); experiment: competition ELISA: 2α PASB on Ni plate, peptide titrated, blocked partner GST-1β; the value stands in the panel without a name, the ELISA fits give IC50; the fall is only partial
Experimental: as §3

[16] = target: T1, Trx-1α (thioredoxin-tagged HIF-1α …); experiment: ELISA, Trx-1α on Ni plate, inhibition of GST-1β binding
Experimental: as §6, §3

[17] = target: T2, Trx-2α (thioredoxin-tagged HIF-2α …); experiment: ELISA, Trx-2α on Ni plate, inhibition of GST-1β binding
Experimental: as §6, §3

[18] = target: T6, HIF-2α (construct not given) (UniProt Q99814 1-360, limits assumed); experiment: HIF-2 ELISA, inhibition of HIF-2α/HIF-1β dimerisation
T6 construct: also called HIF-2 ELISA
T6 sequence (Q99814 1-360 limits assumed): as the sequence (Q99814 1-360) above

[19] = target: T4, 2α PASB (HIF-2α PASB domain, 240-350); experiment: fluorescence polarisation, 2α PASB titrated into 2 µM fluor-CRVIIF
Experimental: Kd values were determined by fluorescence polarisation (FP) using fluorescently labelled cyclo-CRVIIF (fluor-CRVIIF) (SEQ ID NO 4) dissolved in DMSO as the probe. In each condition, the concentration of the probe was kept constant (2 μM, 1% DMSO) whilst proteins were titrated. Reactions were performed in HIF assay buffer with the addition of 0.1% Triton X-100. Samples were assembled in black 96-well plates (40 μL/well, in triplicate) and allowed to equilibrate for 2 hr in the dark. Plates were read using a POLARstar Omega plate reader (BMG Labtech) at Ex: 490 nm, Em: 520 nm, with target gain set to 300 mP. Polarisation data were plotted and Kd values calculated by non-linear regression using GraphPad Prism 6.

Binder | ΔTm [1] [° C.] | ΔTm [2] [° C.] | ΔTm [3] [° C.] | ΔTm [4] [° C.] | ΔTm [5] [° C.] | Kd [8] [µM] | Kd [9] [µM] | other results
CRVIIF (cyclic peptide (cyclo-, first amino acid joined to the last), also called Compound C) [cyclo-CRVIIF (SEQ ID NO 4)] | -1 | -2 | -1.5 | -2.5 | -0.5 | 158 | 133 | IC50 [6]: 5.4 µM; IC50 [7]: 15.2 µM; IC50 [10]: 115 µM; IC50 [11]: 244 µM
CAVIIF (also called alanine scan peptide of CRVIIF, position 2 (R to A)) | – | – | – | – | – | – | – | IC50 [12]: 112 µM; IC50 [13]: 22.3 µM
CRVIIA (also called alanine scan peptide of CRVIIF, position 6 (F to A)) | – | – | – | – | – | – | – | IC50 [14]: 110 µM; IC50 [15]: 37.1 µM
CKLIIF (cyclic peptide (first amino acid joined to the last)) [cyclo-CKLIIF (SEQ ID NO 2)] | -1.5 | -2.5 | -1 | -2.5 | -0.5 | 2.5 | 4.6 | IC50 [16]: 3.7 µM; IC50 [17]: 8.8 µM
cyclo(C(FITC‑maleimide)RVIIF) (not fully specified; printed as fluor-CRVIIF, also called FITC-CRVIIF) [fluorescently labelled cyclo-CRVIIF (fluor-CRVIIF) (SEQ ID NO 4)] | – | – | – | – | – | – | – | Activity as measured by a HIF-2 ELISA [18]: 1.46 µM; Kd [19]: 18.5 µM
